This data set concerns the target T1, PoxCxrA17-150 (Penicillium oxalicum HP7-1) (UniProt A0A2H4WV05).
T1 sequence: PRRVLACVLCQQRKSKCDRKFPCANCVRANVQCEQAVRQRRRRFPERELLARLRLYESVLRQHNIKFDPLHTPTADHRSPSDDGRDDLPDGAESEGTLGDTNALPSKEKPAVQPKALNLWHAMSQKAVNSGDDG
Kind of data set: EMSA. As to conditions: 20 mM Tris-HCl pH 8.0, 50 mM KCl, 5% glycerol, 1 mM DTT, 0.1 mg/mL BSA; 40 ng FAM probe, 0-4.8 ug protein; 4% PAGE in TAE; temperature not stated. (Mobility shift assays separate free from complexed probe on a gel.)

As to “TTAGGAGTGCTATAAGATGGCGACAGAAGTCGGCCGAGGAGGAAATTCTCGTTTCCATCCACCGAGTCTGCATACATTGGATTTCGAGTTGTCAAAATGAGATACGATTTGATTCTTGCCGCCGGCGCCACTCTGGCACTGGCCGTGCCCCAGGGCATCTCCAAGCGGGCCGGAGGCTTTGTCTGTAAGTTG (double strand) [POX01166/Cel5B promoter (CxrA probe)]”, the binding result is “binds”.
Next, “GTGAAAGAGGTGCTTGTCGTGATCGCTTGCCATATGTTTCACTGTATGACTTGGGCACCGGAGCGGCACCGTGAATCAGGCTGGCCAAATCCATTGTCGGACTAGATGCTTCGTCCGTTGGGATCGTTGAATTGTGCGGAATCAGTGTCGTCGAGTGATACAATTGGGACGTGAGATTTAGTCACGACCGATAAGGTG (double strand) [PoxCxrB promoter (CxrA probe)]”: “binds”; “CGGCTTCCAAAGACCCCATATCGACGATCGGCGATTTGGGGAGGGACTAAAGTAGGAGGGAGAGGGAGGGAGCAGAGAGGGAGGGAGCAGAGAGAGAGGGAGAGAGGGAGAGCAAGGGTGAATAACAAGAAAGCGACGATGACAAGGTTGGTAAGATAAC (double strand) [PoxNsdD promoter (CxrA probe)]”: “binds”.

The values above are taken from PMC5700522.
